Reference: US20170112904A1

Key:
Experiment in all cases: cell-based or functional assay
[1] = molecular target: T1, human glucose-dependent insulinotropic polypeptide receptor (human) (UniProt P48546)
T1 sequence (looked up): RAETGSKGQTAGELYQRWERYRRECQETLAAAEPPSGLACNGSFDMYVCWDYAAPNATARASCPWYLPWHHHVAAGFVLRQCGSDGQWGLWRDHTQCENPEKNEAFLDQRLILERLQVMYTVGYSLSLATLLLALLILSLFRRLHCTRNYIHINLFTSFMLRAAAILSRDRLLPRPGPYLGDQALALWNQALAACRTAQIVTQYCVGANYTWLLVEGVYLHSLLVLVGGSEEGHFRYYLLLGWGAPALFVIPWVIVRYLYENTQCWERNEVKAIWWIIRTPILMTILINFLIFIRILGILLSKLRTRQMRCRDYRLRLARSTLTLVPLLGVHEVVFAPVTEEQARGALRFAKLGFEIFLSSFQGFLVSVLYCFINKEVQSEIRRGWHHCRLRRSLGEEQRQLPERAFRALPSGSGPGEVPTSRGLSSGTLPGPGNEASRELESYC

[2] = molecular target: recombinant human glucagon receptor (human) (UniProt P47871)
recombinant human glucagon receptor (human), sequence (P47871 26-477): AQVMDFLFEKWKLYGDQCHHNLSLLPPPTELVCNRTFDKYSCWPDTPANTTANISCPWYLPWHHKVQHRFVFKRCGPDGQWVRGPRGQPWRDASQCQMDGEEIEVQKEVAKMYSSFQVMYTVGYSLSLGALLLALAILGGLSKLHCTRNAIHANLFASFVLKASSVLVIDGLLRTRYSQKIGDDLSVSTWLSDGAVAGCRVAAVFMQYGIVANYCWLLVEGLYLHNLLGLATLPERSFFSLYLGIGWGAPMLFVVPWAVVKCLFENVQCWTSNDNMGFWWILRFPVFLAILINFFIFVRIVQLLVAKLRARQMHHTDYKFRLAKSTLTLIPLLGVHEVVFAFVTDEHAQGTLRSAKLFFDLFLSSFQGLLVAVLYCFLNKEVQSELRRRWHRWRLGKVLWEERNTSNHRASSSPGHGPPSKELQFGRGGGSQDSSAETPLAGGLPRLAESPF

[3] = molecular target: human Glucagon-Like Peptide-1 receptor (human) (UniProt P43220)
human Glucagon-Like Peptide-1 receptor (human), sequence (P43220 24-463): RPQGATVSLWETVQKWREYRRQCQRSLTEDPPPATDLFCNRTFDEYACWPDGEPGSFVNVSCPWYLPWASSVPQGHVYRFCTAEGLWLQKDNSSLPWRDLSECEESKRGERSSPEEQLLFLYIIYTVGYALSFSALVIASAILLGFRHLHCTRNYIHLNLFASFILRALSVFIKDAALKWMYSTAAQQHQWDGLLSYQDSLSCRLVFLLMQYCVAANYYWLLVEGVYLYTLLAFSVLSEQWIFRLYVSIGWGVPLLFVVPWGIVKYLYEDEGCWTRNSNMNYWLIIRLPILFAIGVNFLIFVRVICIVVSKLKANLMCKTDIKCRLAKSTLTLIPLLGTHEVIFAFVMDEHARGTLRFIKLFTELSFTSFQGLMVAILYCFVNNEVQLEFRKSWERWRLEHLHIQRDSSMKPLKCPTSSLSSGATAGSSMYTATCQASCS

dulaglutide (Fc fusion), sequence (chain): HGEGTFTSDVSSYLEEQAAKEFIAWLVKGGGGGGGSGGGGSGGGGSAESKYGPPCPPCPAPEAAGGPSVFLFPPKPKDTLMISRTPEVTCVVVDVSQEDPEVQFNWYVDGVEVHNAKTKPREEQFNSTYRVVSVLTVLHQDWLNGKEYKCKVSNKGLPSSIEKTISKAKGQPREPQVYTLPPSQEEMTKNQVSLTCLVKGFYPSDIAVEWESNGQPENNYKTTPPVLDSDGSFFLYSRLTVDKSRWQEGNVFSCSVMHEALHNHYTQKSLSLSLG

EC50, GIP Receptor Assay; sample C6.5-4 C.-4 wk [1]: > 0.1 µM
EC50, GIP Receptor Assay; sample C6.5-40 C.-4 wk [1]: > 0.1 µM
EC50, GIP Receptor Assay; sample C6.5MT-4 C.-4 wk [1]: > 0.1 µM
EC50, GIP Receptor Assay; sample C6.5MT-40 C.-4 wk [1]: > 0.1 µM
EC50, Gcg Receptor Assay; sample C6.5-4 C.-4 wk [2]: 0.0519 µM
EC50, Gcg Receptor Assay; sample C6.5-40 C.-4 wk [2]: > 0.1 µM
EC50, Gcg Receptor Assay; sample C6.5MT-4 C.-4 wk [2]: 0.054 µM
EC50, Gcg Receptor Assay; sample C6.5MT-40 C.-4 wk [2]: > 0.1 µM
EC50, GLP-1 Receptor Assay; sample C6.5-4 C.-4 wk [3]: 0.00037 µM
EC50, GLP-1 Receptor Assay; sample C6.5-40 C.-4 wk [3]: 0.00031 µM
EC50, GLP-1 Receptor Assay; sample C6.5MT-4 C.-4 wk [3]: 0.0004 µM
EC50, GLP-1 Receptor Assay; sample C6.5MT-40 C.-4 wk [3]: 0.00029 µM
Substance: dulaglutide (Fc fusion)
